Tested on: MS2 coat protein
Assay: apparent KD of MS2 coat protein; designed switch direction (-1 OFF switch, 1 ON switch): -1; higher = weaker reporter binding
Method in brief: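 The buffer was Tris-HCl pH 7.5 with KCl, MgCl2, BSA, DTT, tRNA and Tween-20. In it, SNAP-549-labelled MS2 coat protein was titrated in doubling steps from 0.7 or 1.5 nM to 3 µM over chip-bound RNA switches transcribed by stalled E. coli RNA polymerase on Illumina chips. Apparent KD is the per-design median over clusters of curve fits to normalised fluorescence.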

[1] = Eterna round: R95, input ligand: FMN 200 uM
[2] = Eterna round: R95, input ligand: microRNA oligo, concentration not stated
[3] = Eterna round: R95, input ligand: none
[4] = input ligand: microRNA oligo, concentration not stated

Sequence	apparent KD of MS2 coat protein [1] [nM]	apparent KD of MS2 coat protein [2] [nM]	apparent KD of MS2 coat protein [3] [nM]	apparent KD of MS2 coat protein (input ligand: FMN 200 uM) [nM]	apparent KD of MS2 coat protein [4] [nM]	apparent KD of MS2 coat protein (input ligand: none) [nM]
GUCACUAGAGGAUAUACAAUGGUAUAUGAUCCUAGAGACAAACAUGAGGAUCACCCAUGUAGAAGGCUAGUAAU [Exclusion 2 - 3] (puzzle: Exclusion 2)	23.8	178	123	–	–	–
UUGGUUGUGGUAGGAUAUCCGUUGGAAACCGUUGGAGAAGGACCACAGUCACUGGGUCUUUGUUUGGUGGAGUGGAAGAACCAU [pwkr exNG1 F6.19] (Eterna round: R96, puzzle: Exclusion NG 1)	–	–	–	1020	210	349
CCGUAACAUGAGGAUCACCCAUGUUAGGAUAUGUAGCGCUGGGCAUCCUCAGCUGGUUAUAGAAGGGACGAGGG [Eternabot (L2) Solution 15] (Eterna round: R97, puzzle: Exclusion 1)	–	–	–	73.7	–	111
GGAAUACAUGAGGAUCACCCAUGUAAGGAUAUGCUGAAUAACACGGAAUUAACGUGCAGCAGAAGGUACAAAUG [Mat - Mod of my Eli Mod D44] (puzzle: Exclusion 1)	105	112	93.2	–	–	–
AAGAAACAUGAGGAUCACCCAUGUGAGGAUAUGAAAAAGAAAAGAAAAGAAAGAAUAAUCAGAAGGCACAAAGG [Mat - Mod of Hog D11] (puzzle: Exclusion 1)	50.7	34.3	40.1	–	–	–
GAAAAGGUAGGAUAUACGAAAAGAAAGGGUAGAAGAAGAACACAUGAGGAUCACCCAUGUAGAAGGACCAAAAG [Mat - Exclusion 2 - Mod of my Tesla design - D1] (puzzle: Exclusion 2)	73.1	18.5	16.5	–	–	–
GUCAUCAAACAUGGGAUAAACAUGAGGAUCACCCAUGUAUACAAGUUUUUUGCUCGUCUUAUAAUAAGUUUGAUGAC [Antenna 6 - Jieux - Sensor, turn-off variant 1] (Eterna round: R97, puzzle: Sensor, turn-off variant 1)	–	–	–	16.4	–	15.3
AGCUGAGCAGGAUAUACAUGAGGAUCACCCAUGUAUUCUCGAAGGCGCCGCAUAGCAUGUAGAAGGGUUUAGAU [Eternabot (L1) Solution 20] (Eterna round: R97, puzzle: Exclusion 3)	–	–	–	17	–	23.2
UGGUAACAUGAGGAUCACCCAUGUCAGGAUAUCAGUAAGAAUAGAUUAGAGUAGAAGAUGAGAAGGGACUAUAU [Excluse me! 6 - Jieux - Exclusion 1] (puzzle: Exclusion 1)	–	33.8	–	–	–	–
UCACGGGAUUGAGGAUAUAUAUUAAUUUUUACAAUAGAAGGCAAAUUGUUAGUUUUUUCACUAUACAUGAGGAUCACCCAUGUU [JR_ExcBG1_Sub079] (Eterna round: R96, puzzle: Exclusion NG 1)	–	–	–	–	18.9	–
ACCUAUGAGGAGGAUAUACAGUGCGAAAGGACAGUAGAAGGCUUCACAUGAGGAUCACCCAUGUCGAUAAGCGA [EX6 #83] (Eterna round: R97, puzzle: Exclusion 6)	–	–	–	30.2	–	21.5
AAAUCACAUGAGGAUCACCCAUGUGAGGAUAUGAUACUAUGUACUUCGGUACAUAGUAUCAGAAGGCAUGUGGA [Ex1-3: 89] (Eterna round: R96, puzzle: Exclusion 1)	–	–	–	43.1	22.6	29.5
AGAUCACAUGAGGAUCACCCAUGUGAGGAUAUGGACUGAAGAGCUUCGGCUCUUCAGUCCAGAAGGCACAAUGA [EX1 #43] (Eterna round: R97, puzzle: Exclusion 1)	–	–	–	40.7	–	28.9
GGAUCGAAUGUGAGGAUAUGCAGGUCCUUGGAUCUGCAGAAGGCACAUGAGGAUCACCCAUGUGACCUAGAUCC [Mat - Exclusion 4 - Eli Mod - D44] (Eterna round: R97, puzzle: Brourd's mod of Exclusion 4)	–	–	–	268	–	30.5
GAUAAAGGGCAGGAUAUGGCUGGAAAAUAUCCGCCAGAAGGGCCCACAUGAGGAUCACCCAUGUGUGGUCCGCG [Lere] (puzzle: Exclusion 6)	52.3	17.3	19.1	–	–	–
CACAAGCUUUUUUGAUGCAUUUUAGUUGGUUUCCUUUUUACAUGAGGAUCACCCAUGUUUAUGAAGCUCGAUCUUUU [JR_SV3TOV2_Sub079] (puzzle: Sensor v3, turn-off variant 2)	54.3	49.2	60.1	–	–	–
ACAACCGGAGGAUAUACGUAUUCAUCACUCAACGCGGAACGACAUGAGGAUCACCCAUGUAGAAGGCCGAGAGU [EX2 B.24] (Eterna round: R97, puzzle: Exclusion 2)	–	–	–	13.5	–	16

Sequence	apparent KD of MS2 coat protein [1] [nM]	apparent KD of MS2 coat protein [2] [nM]	apparent KD of MS2 coat protein [3] [nM]	apparent KD of MS2 coat protein (input ligand: FMN 200 uM) [nM]	apparent KD of MS2 coat protein [4] [nM]	apparent KD of MS2 coat protein (input ligand: none) [nM]
AAGGAUAGAGGAUAUACAUAGAUACAGAUUCAUGUGGAACUACAUGAGGAUCACCCAUGUAGAAGGCUAUCCUA [Fiskers Ex 2 - 9] (puzzle: Exclusion 2)	–	35.9	–	–	–	–
CGUAGCAAUGUGAGGAUAUCUAGAGCUUCGGCUCUAGAGAAGGCACAUGAGGAUCACCCAUGUGAUUAGCUACG [BmEx4/9-B1] (Eterna round: R97, puzzle: Brourd's mod of Exclusion 4)	–	–	–	989	–	347
GGUCCGAGUGUGAGGAUAUGCUGGUCCUUGGAUCAGCAGAAGGCACAUGAGGAUCACCCAUGUGAAGACGGACC [Mat - Exclusion 4 - Eli Mod - D30] (Eterna round: R97, puzzle: Brourd's mod of Exclusion 4)	–	–	–	537	–	91.5
GAAAACGCUGAGGAUAUUUCUGAUCAAAGCAGCAAAGAAGGCAGCACAUGAGGAUCACCCAUGUGGUCUUCAAG [Mat - Exclusion 6 - JL Mod - D12] (Eterna round: R97, puzzle: Exclusion 6)	–	–	–	243	–	44.7
AAAUAGGCAGGAUAUACAUGAGGAUCACCCAUGUAAAUUUUUCGUUUAACUUGAAUGUGUAGAAGGGCCAUAAA [Ex3 #54] (Eterna round: R97, puzzle: Exclusion 3)	–	–	–	27.4	–	26.8
GAUUAUGCGAGCUUUAGGGACAUGAGGAUCACCCAUGUUCGUCUUGUUGAUCUAGGUGCGCUAACAUACCUAAAUCU [JMF 48] (puzzle: Sensor v3, turn-off variant 1)	23.5	30.5	23.4	–	–	–
CACCGUUACAGAGGAUAUGACACAUGAGGAUCACCCAUGUAAUAAAUGAGAAUUUCGAAUGUACCUCAGAAGGCUGGAACCGGC [Ostricism 78 - Jieux - Exclusion NG 2] (Eterna round: R96, puzzle: Exclusion NG 2)	–	–	–	61.2	31.5	38.7
AUUUUGUCAGGAUAUGACUAGUAGGACGAGAGUGCUACUACUUAGAAGGGACAUGAGGAUCACCCAUGUAUUCC [Bring Us a Shrubbery-09] (puzzle: Exclusion 4)	–	14.1	–	–	–	–
CAUGUGUUAGGAUAUGCACAGAUCUCCUAAUGGAGAUCUGUGCAGAAGGAACAUGAGGAUCACCCAUGUUGAUG [Mod of Brourd 13 - Jieux - Exclusion 4] (Eterna round: R97, puzzle: Exclusion 4)	–	–	–	129	–	35.4
CUGCUCCGUGUAGGAUAUCCGUGCAACCAAUACGGAGAAGGACAUGAGGAUCACCCAUGUAUGUUAUUAUCACGUGAAGCGUCC [Design 24] (Eterna round: R96, puzzle: Exclusion NG 1)	–	–	–	23.1	17	24.3
UAGUACAGAGGAUAUACAUGAGGAUCACCCAUGUGUUUCAGCUAGGAGACUAGCGAAAGUAGAAGGCUGUACUA [salish99_ex3_r4_008] (Eterna round: R97, puzzle: Exclusion 3)	–	–	–	22.9	–	9.42
GUAUGUUAUGAGGAUAUCGGUGAACAUACACAUCGAGAAGGCAUGACAUGAGGAUCACCCAUGUCAAGGAUGAC [Exclusion 6 - B - 18:d] (puzzle: Exclusion 6)	–	24.9	–	–	–	–
AGAAAAGACCUAGGAUAUACCCAGUGGGUAGAGGGUCAUAAUAAUAAAACAUGAGGAUCACCCAUGUAGAAGGAGGGAAAGAAG [Biriusdibe] (Eterna round: R96, puzzle: Exclusion NG 2)	–	–	–	58.1	47.1	63.2
CCGCAAAUGCAGGAUAUCGUAUCGGAUACGAUACGAGAAGGGUAUACAUGAGGAUCACCCAUGUGUCCUAGCGG [Fiskers Ex 6 - 45] (puzzle: Exclusion 6)	23.9	20.3	21.5	–	–	–
GCAGCAUAGUCGGAAACGACAGAACAUGAGGAUCACCCAUGUCAGGAUAUGGUCUGGAUUACAGGCCAGAAGGGACGAAGCUGC [Eli exng3 - 010] (Eterna round: R96, puzzle: Exclusion NG 3)	–	–	–	13.5	11.4	16
GAUUAUGCGAGCUUUAGGGACAUGAGGAUCACCCAUGUUCGUCUUAUUGAUCUAGGUACACUAACAUACCUAAAUCU [JMF 17] (puzzle: Sensor v3, turn-off variant 1)	19.8	38.1	23.1	–	–	–
AAGAGUGCAGGAUAUACUUGAUAGGGUAAGGUGAGUGAGGGACAUGAGGAUCACCCAUGUAGAAGGGCAGAGAG [JR_Exclu2_Sub058] (puzzle: Exclusion 2)	25.8	33.4	26.3	–	–	–

Reference: the supplement of paper PMC9170038
